T1: extracellular domain of human PD-L2 (R&D Systems, 1224-PL) (human, UniProt Q9BQ51 20-220)
T1 construct: extracellular domain; Bought
T1 sequence (looked up): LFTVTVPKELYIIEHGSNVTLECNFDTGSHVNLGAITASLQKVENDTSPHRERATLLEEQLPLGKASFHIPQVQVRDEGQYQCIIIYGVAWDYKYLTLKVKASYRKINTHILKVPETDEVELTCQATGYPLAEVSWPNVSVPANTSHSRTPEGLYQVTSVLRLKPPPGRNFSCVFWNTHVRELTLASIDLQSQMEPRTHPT

T2: extracellular domain of human B7-H2 (R&D Systems, 165-B7) (human, UniProt O75144 19-256)
T2 construct: extracellular domain; Bought
T2 sequence (looked up): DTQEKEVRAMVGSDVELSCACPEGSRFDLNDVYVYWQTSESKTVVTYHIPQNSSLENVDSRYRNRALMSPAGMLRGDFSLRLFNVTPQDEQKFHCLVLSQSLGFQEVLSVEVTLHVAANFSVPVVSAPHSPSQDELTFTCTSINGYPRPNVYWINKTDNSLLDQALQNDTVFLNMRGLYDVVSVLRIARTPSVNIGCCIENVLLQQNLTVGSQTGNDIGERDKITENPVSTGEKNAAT

T3: extracellular domain of human CTLA-4 (R&D Systems, 325-CT) (human, UniProt P16410 36-161)
T3 construct: extracellular domain; Bought
T3 sequence (looked up): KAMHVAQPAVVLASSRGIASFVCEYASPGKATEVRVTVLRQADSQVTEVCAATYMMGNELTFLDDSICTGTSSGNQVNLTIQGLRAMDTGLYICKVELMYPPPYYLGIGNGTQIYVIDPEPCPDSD


How the values were obtained:
[1] = biological target: T1, extracellular domain of human PD-L2 …; assay: ELISA, biotinylated IgG1-TM on coated ECD
Procedure: (§1) ELISAs were performed to determine the cross-reactivity of the anti-B7-H1 IgG1-TM antibodies for other immune co-modulatory molecules. […] Murine cross reactivity was also investigated by coating the ECD of murine B7-H1 (R&D Systems, 1019-B7). Biotinylated anti-B7-H1 IgG1-TM diluted at 100 nM in PBS containing 3% dried milk powder, were incubated at room temperature for 2 h to allow binding. Bound biotinylated IgGs were detected with europium N1-labelled streptavidin (Perkin Elmer, 1244-360) at 0.2 ug/mL. […] Primary antibodies were incubated at 5 ug/mL in PBS containing 3% dried milk powder for 2 h at room temperature. Detection was carried out by incubating the secondary antibody anti-mouse IgG Peroxidase conjugate (Sigma, A2554) or anti-rat IgG Peroxidase conjugate (Sigma, A5795) diluted 1:5000 in PBS containing 3% dried milk powder for 1 h at room temperature and subsequent addition of TMB (Sigma, T0440). […] Non-specific binding was determined using wells coated with the IgG1 isotype control at 5 ug/mL. Cross reactivities were calculated at a percent of the specific binding to the antigen relative to human B7-H1.

[2] = biological target: T2, extracellular domain of human B7-H2 …; assay: ELISA, biotinylated IgG1-TM on coated ECD
Procedure: as §1

[3] = biological target: T4, extracellular domain of human CD28 (R&D Systems, 342-CD) (human, UniProt P10747 19-152); assay: ELISA, biotinylated IgG1-TM on coated ECD
T4 construct: extracellular domain; Bought
T4 sequence (P10747 19-152): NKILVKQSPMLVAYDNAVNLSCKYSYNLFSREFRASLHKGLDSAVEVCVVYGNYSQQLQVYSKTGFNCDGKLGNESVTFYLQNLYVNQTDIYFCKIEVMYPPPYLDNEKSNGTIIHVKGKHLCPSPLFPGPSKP
Procedure: as §1

[4] = biological target: T3, extracellular domain of human CTLA-4 …; assay: ELISA, biotinylated IgG1-TM on coated ECD
Procedure: as §1

[5] = biological target: T5, human PD-1/Fc protein (R&D Systems, catalog #1086-PD) (human, UniProt Q15116 25-170); assay: ELISA, biotinylated IgG1-TM on coated ECD
T5 construct: extracellular domain; Bought; not shown: Fc portion
T5 sequence (Q15116 25-170): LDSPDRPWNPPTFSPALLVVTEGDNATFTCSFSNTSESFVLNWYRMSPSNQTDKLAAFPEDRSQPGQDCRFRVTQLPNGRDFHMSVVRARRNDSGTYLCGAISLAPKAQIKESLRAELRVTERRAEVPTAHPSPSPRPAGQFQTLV
Procedure: as §1

[6] = biological target: T6, extracellular domain of murine B7-H1 (R&D Systems, 1019-B7) (murine, UniProt Q9EP73 19-239); assay: ELISA, biotinylated IgG1-TM on coated murine B7-H1 ECD
T6 construct: extracellular domain; Bought
T6 sequence (Q9EP73 19-239): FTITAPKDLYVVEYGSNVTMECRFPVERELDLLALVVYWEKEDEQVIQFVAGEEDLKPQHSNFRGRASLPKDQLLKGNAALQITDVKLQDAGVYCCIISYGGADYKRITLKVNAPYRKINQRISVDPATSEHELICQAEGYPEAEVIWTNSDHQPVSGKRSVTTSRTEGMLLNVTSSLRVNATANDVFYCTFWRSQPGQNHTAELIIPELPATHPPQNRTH
Procedure: as §1

[7] = biological target: T7, recombinant monomeric cynomologus B7-H1 FlagHis10 extracellular domain (cynomologus); assay: SPR (BIAcore T100), IgG captured via protein G, monomeric cynomologus B7-H1 ECD as analyte, 25 °C, 1:1 model
T7 construct: extracellular domain; also called CYNO B7H1
Procedure: The binding affinity and kinetic parameters of anti-B7-H1 antibodies in the IgG1-TM format to monomeric human and cynomologus B7-H1 were determined by surface plasmon resonance using a BIAcore T100 instrument (BIAcore, Uppsala, Sweden). In brief, experiments were performed at 25° C. using HBS-EP buffer (10 mM HEPES, 150 mM NaCl, 3 mM EDTA, 0.05% v/v surfactant P20) as running buffer. IgGs were affinity captured on the surface of a CM5 sensor chip (BIAcore) via protein G, which was amine coupled onto the CM5 surface to achieve the density of ˜500 Response Units (RU), according to the manufacturer's instructions (BIAapplications Handbook, BIAcore). Recombinant monomeric human or cynomologus B7-H1 FlagHis₁₀ extracellular domains (ECDs) were used as analytes. […] All measurements were baseline corrected by subtracting the sensorgram obtained with the control (activated-deactivated) flow cell, as well as double referenced with blank (zero analyte concentration) injections. Data were analyzed using the T-100 BIAevaluation software package and fitted to a simple 1:1 Langmuir binding model with local Rₘₐₓ and bulk refractive index set to 0. Data were calculated from at least two independent experiments. Mass transport effects were limited by keeping the level of affinity-captured IgGs below 250 RU.

binding result [1] | binding result [2] | binding result [3] | binding result [4] | binding result [5] | binding result [6] | Kd [7] [nM] | Binder
no binding (tested: 100 nM) | no binding (tested: 100 nM) | no binding (tested: 100 nM) | no binding (tested: 100 nM) | no binding (tested: 100 nM) | no binding (tested: 100 nM) | – | 2.9D10 in the IgG1-TM format (antibody, V domains shown, Recombinant human IgG1-TM (IgG1 with L234F, L235E, P331S), kappa; also called 2.9D10 IgG1-TM) VH: EVQLVESGGGLVQPGGSLRLSCAASGFTFSSYWMSWVRQAPGKGLEWVANIKQDGGEQYYVDSVKGRFTISRDNAKNSLYLQMNSLRAEDTAVYYCARDWNYGYYDMDVWGQGTTVTVSS VL: EIVLTQSPGTLSLSPGERATLSCRASQSVSSNYLAWFQQKPGQAPRLLIFGTSSRATGIPDRFSGSGSGTDFTLTISRLEPEDFAVYYCQQYGSSIFTFGPGTKVDIK
no binding (tested: 100 nM) | no binding (tested: 100 nM) | no binding (tested: 100 nM) | no binding (tested: 100 nM) | no binding (tested: 100 nM) | no binding (tested: 100 nM) | 0.367 | 2.14H9OPT (antibody, V domains shown, Germlined VL; human IgG1-TM (L234F, L235E, P331S), kappa) VH: EVQLVESGGGLVQPGGSLRLSCAASGFTFSRYWMSWVRQAPGKGLEWVANIKQDGSEKYYVDSVKGRFTISRDNAKNSLYLQMNSLRAEDTAVYYCAREGGWFGELAFDYWGQGTLVTVSS VL: EIVLTQSPGTLSLSPGERATLSCRASQRVSSSYLAWYQQKPGQAPRLLIYDASSRATGIPDRFSGSGSGTDFTLTISRLEPEDFAVYYCQQYGSLPWTFGQGTKVEIK
